For four molecules, interaction score results are on record in PMC10397247.

Assay in all cases: two-hybrid library CCNG1;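 note: natural log of median RNA to DNA barcode read ratio; higher means stronger binding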
One test addresses T1, 4H4001-bN.
T1 chain: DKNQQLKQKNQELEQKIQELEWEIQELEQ

The target in another test is T2, 4H953-bH.
T2 chain: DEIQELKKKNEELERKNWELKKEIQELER

A further test deals with T3, 4H2610-bH.
T3 chain: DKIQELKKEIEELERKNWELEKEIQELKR

Another test deals with T4, 4H4001-bH.
T4 chain: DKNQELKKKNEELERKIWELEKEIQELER

A further test deals with T5, 4H3427-bH.
T5 chain: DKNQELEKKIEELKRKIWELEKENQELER

The target in a further test is T6, O7-bN.
T6 chain: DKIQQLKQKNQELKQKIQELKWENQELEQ

In another test the target is T7, 4H3606-bH.
T7 chain: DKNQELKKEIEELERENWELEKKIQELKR

The next test addresses T8, 4H967-bH.
T8 chain: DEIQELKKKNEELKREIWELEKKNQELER

A further test concerns the target T9, 4H3855-bH.
T9 chain: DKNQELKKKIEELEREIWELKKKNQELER

A further test addresses T10, 4H370-bH.
T10 chain: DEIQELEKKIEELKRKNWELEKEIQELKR

In another test the target is T11, 4H72-bH.
T11 chain: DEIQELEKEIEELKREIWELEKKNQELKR

The target of a further test is T12, 4H3843-bH.
T12 chain: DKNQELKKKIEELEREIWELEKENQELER

In the next test the target is T13, 4H3112-bH.
T13 chain: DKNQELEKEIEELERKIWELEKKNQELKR

A further test has as its target T14, 4H2729-bH.
T14 chain: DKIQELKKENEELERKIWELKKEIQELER

For a further test, the target named is T15, 4H918-bN.
T15 chain: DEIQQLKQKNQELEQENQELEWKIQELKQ

For a further test, the target named is T16, 4H883-bH.
T16 chain: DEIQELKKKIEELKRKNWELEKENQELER

The target of another test is T17, 4H918-bH.
T17 chain: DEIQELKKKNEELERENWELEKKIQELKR

In another test the target is T18, 4H2442-bH.
T18 chain: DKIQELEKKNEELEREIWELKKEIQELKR

In a further test the target is T19, 4H3189-bH.
T19 chain: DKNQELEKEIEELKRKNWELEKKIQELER

The target in a further test is T20, 4H754-bH.
T20 chain: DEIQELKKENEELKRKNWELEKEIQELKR

The next test concerns the target T21, 4H2717-bN.
T21 chain: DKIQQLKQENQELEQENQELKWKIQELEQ

Another test has as its target T22, 4H908-bH.
T22 chain: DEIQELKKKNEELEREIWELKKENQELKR

Another test concerns the target T23, 4H717-bH.
T23 chain: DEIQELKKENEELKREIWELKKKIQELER

Another test concerns the target T24, 4H454-bH.
T24 chain: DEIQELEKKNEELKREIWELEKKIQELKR

The target in the next test is T25, 4H687-bH.
T25 chain: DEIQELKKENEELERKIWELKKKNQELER

The target in the next test is T26, 4H3185-bH.
T26 chain: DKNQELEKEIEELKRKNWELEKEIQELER

A further test addresses T27, 4H2576-bH.
T27 chain: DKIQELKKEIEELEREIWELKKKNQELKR

Another test deals with T28, 4H2667-bH.
T28 chain: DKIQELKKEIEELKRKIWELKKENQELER

The target of the next test is T29, 4H3354-bH.
T29 chain: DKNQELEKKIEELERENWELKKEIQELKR

A further test addresses T30, 4H568-bH.
T30 chain: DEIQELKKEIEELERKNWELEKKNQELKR

In the next test the target is T31, 4H331-bH.
T31 chain: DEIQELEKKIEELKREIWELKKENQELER

For the next test, the target named is T32, 4H797-bH.
T32 chain: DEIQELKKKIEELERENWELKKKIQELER

The target in the next test is T33, 4H338-bH.
T33 chain: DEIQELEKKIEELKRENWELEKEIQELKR

The target in another test is T34, 4H2697-bH.
T34 chain: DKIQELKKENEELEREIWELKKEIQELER

For a further test, the target named is T35, 4H607-bH.
T35 chain: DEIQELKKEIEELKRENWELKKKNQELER

In the next test the target is T36, 4H1845-bH.
T36 chain: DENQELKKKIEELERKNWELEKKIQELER

Another test deals with T37, 4H3782-bH.
T37 chain: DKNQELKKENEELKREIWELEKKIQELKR

For a further test, the target named is T38, 4H575-bA.
T38 chain: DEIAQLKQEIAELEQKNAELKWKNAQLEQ

A further test deals with T39, 4H462-bH.
T39 chain: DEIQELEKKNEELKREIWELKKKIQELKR

For a further test, the target named is T40, 4H2618-bH.
T40 chain: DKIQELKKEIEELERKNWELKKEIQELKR

In another test the target is T41, O5.
T41 chain: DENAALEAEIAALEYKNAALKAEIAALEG

In a further test the target is T42, O2.
T42 chain: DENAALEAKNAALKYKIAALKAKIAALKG

A further test has as its target T43, O9.
T43 chain: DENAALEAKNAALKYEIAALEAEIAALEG

The next test has as its target T44, O12.
T44 chain: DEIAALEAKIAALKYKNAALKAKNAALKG

For a further test, the target named is T45, O6.
T45 chain: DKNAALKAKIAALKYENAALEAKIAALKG

The target in the next test is T46, O4.
T46 chain: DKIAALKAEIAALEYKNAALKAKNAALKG

The target in the next test is T47, O15.
T47 chain: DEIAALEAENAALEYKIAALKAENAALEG

Another test has as its target T48, O3.
T48 chain: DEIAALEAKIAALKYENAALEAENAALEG

The target of another test is T49, O7.
T49 chain: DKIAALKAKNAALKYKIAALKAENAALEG

The target of another test is T50, O16.
T50 chain: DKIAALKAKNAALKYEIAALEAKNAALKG

The target of another test is T51, O8.
T51 chain: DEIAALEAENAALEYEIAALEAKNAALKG

The next test concerns the target T52, O14.
T52 chain: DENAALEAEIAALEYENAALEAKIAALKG

In another test the target is T53, O13.
T53 chain: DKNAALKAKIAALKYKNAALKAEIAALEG

In a further test the target is T54, 4H883-bA.
T54 chain: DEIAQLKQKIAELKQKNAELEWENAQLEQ

In the next test the target is T55, 4H3907-bA.
T55 chain: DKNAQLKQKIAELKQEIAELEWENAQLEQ

The target in a further test is T56, 4H575-bH.
T56 chain: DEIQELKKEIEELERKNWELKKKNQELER
As to conditions: mean of both orientations.

Regarding DENQELKKKIEELERKNWELEKKIQELER [4H1845-bH], the interaction score in the test with 4H4001-bN was -0.805; with 4H953-bH it was -0.598; in the test with 4H2610-bH it was -0.549; in the test with 4H4001-bH, -1.03; with 4H3427-bH, -0.323; in the test with O7-bN, -0.332. The interaction score in the test with 4H3606-bH was 0.808; with 4H967-bH, -0.511; with 4H3855-bH, -0.295; in the test with 4H370-bH, -0.319; with 4H72-bH, 0.142; in the test with 4H3843-bH it was -0.224. The interaction score with 4H3112-bH was -0.698; in the test with 4H2729-bH, 0.473; with 4H918-bN, -1.11; with 4H883-bH, 0.0604; in the test with 4H918-bH, -0.512; with 4H2442-bH it was -0.237. The interaction score with 4H3189-bH is 0.462; with 4H754-bH it was 0.391; with 4H2717-bN, -0.601; with 4H908-bH it was -1; with 4H717-bH it was 0.319; in the test with 4H454-bH, -0.0899. The interaction score with 4H687-bH was -0.46; with 4H3185-bH, 0.639; with 4H2576-bH, -1.7; in the test with 4H2667-bH, 0.349; with 4H3354-bH it was 0.334; in the test with 4H568-bH, -0.447. Also, the interaction score was -1.2 with 4H331-bH; 0.175 with 4H797-bH; -0.243 with 4H338-bH; 0.106 with 4H2697-bH; -2.75 with 4H607-bH; 0.142 with 4H1845-bH. Further, the interaction score in the test with 4H3782-bH was 0.165; in the test with 4H575-bA, -1.1; in the test with 4H462-bH it was -0.599; with 4H2618-bH, -1.52.

Regarding DEIAALEAKIAALKYKNAALKAKNAALKG [O12], the interaction score in the test with O5 is -2.03; with O2, -2.46; with O9 it was -1.67; with O12, -2.08; with O6, -2.27; with O4 it was -1.08. Further, the interaction score with O15 is -1.36; in the test with O3, 0.318; in the test with O7 it was -2.15; with O16, -2.57; in the test with O8, -1.51; in the test with O14 it was -1.45. For the same molecule, the interaction score with O13 is -2.04.

Take DKIQELEKKNEELEREIWELKKEIQELKR [4H2442-bH]: the interaction score is 0.587 in the test with 4H953-bH; -2.1 in the test with 4H883-bA; -0.244 with 4H4001-bH; -0.00664 with 4H3427-bH; 0.424 in the test with 4H967-bH; -1.1 with 4H3855-bH. Besides, the interaction score is -2.01 with 4H72-bH; -1.28 in the test with 4H3907-bA; -0.123 with 4H3112-bH; 1.77 with 4H2729-bH; 0.442 in the test with 4H883-bH; 0.167 with 4H575-bH. Further, the interaction score with 4H918-bH is -0.517; with 4H2442-bH it was 1.25; with 4H754-bH, -0.751; in the test with 4H908-bH it was -0.628; in the test with 4H717-bH, 0.313; with 4H454-bH, 1.64. In addition, the interaction score in the test with 4H687-bH is -0.163; with 4H3185-bH it was -0.571; in the test with 4H2576-bH it was 0.27; with 4H2667-bH, -0.37; with 4H3354-bH it was 0.0703; with 4H568-bH, -0.0562. The interaction score is -0.168 in the test with 4H331-bH; -0.629 in the test with 4H797-bH; 0.526 with 4H338-bH; -0.566 with 4H3782-bH; 1.93 with 4H2618-bH.

On to DEIQELKKKNEELKREIWELEKKNQELER [4H967-bH], for which the values for the interaction score in the test with O12 and with 4H967-bH were -1.53 and -0.406, respectively.
